Measurements reported in the RNAGym collection of RNA variant scans (doi:10.7554/elife.80360).

B1: Twister Ribozyme (parent)
chain: AACACUGCCAAUGCCGGUCCCAAGCCCGGAUAAAAGUGGAGGGGGCGG

Variants of: B1
Assay: self-cleavage, relative activity (ratio to wild type); higher = more cleavage; co-transcriptional
In the case of AACACUGCCAAUGCCGGUCCCAAGGCCGGAUAAAAGUAGAGGGGGCGG [C25G G38A], the self-cleavage is reported as 0.0823.
With AACACUGCCAAUGCCGGUCCCAAGGCCGGAUAAAAGUUGAGGGGGCGG [C25G G38U] the self-cleavage was 0.131.
Work on AACACUGCCAAUGCCGGUCCCAAGGCCGGAUAAAAGUGAAGGGGGCGG [C25G G39A] yielded a self-cleavage of 0.101.
AACACUGCCAAUGCCGGUCCCAAGGCCGGAUAAAAGUGGAAGGGGCGG [C25G G41A] showed a self-cleavage of 0.146.
Work on AACACUGCCAAUGCCGGUCCCAAGGCCGGAUAAAAGUGGAGAGGGCGG [C25G G42A] yielded a self-cleavage of 0.118.
For AACACUGCCAAUGCCGGUCCCAAGGCCGGAUAAAAGUGGAGCGGGCGG [C25G G42C], the self-cleavage was 0.18.
For AACACUGCCAAUGCCGGUCCCAAGGCCGGAUAAAAGUGGAGGAGGCGG [C25G G43A], the self-cleavage was 0.122.
For AACACUGCCAAUGCCGGUCCCAAGGCCGGAUAAAAGUGGAGGCGGCGG [C25G G43C], the self-cleavage was 0.124.
AACACUGCCAAUGCCGGUCCCAAGGCCGGAUAAAAGUGGAGGGAGCGG [C25G G44A] gave a self-cleavage of 0.514.
In the case of AACACUGCCAAUGCCGGUCCCAAGGCCGGAUAAAAGUGGAGGGGACGG [C25G G45A], the self-cleavage is reported as 0.132.
With AACACUGCCAAUGCCGGUCCCAAGGCCGGAUAAAAGUGGAGGGGCCGG [C25G G45C] the self-cleavage was 0.143.
Work on AACACUGCCAAUGCCGGUCCCAAGGCCGGAUAAAAGUGGAGGGGUCGG [C25G G45U] yielded a self-cleavage of 0.145.
In the case of AACACUGCCAAUGCCGGUCCCAAGGCCGGAUAAAAGUGGAGGGGGCAG [C25G G47A], the self-cleavage is reported as 0.153.
AACACUGCCAAUGCCGGUCCCAAGGCCGGAUAAAAGUGGAGGGGGCCG [C25G G47C] gave a self-cleavage of 0.142.
Variant AACACUGCCAAUGCCGGUCCCAAGGCCGGAUAAAAGUGGAGGGGGCUG [C25G G47U] has a self-cleavage of 0.155.
Variant AACACUGCCAAUGCCGGUCCCAAGGCCGGAAAAAAGUGGAGGGGGCGG [C25G U31A] has a self-cleavage of 0.482.
Work on AACACUGCCAAUGCCGGUCCCAAGGCCGGACAAAAGUGGAGGGGGCGG [C25G U31C] yielded a self-cleavage of 0.404.
In the case of AACACUGCCAAUGCCGGUCCCAAGGCCGGAUAAAAGAGGAGGGGGCGG [C25G U37A], the self-cleavage is reported as 0.166.
With AACACUGCCAAUGCCGGUCCCAAGGCCGGAUAAAAGGGGAGGGGGCGG [C25G U37G] the self-cleavage was 0.104.
In the case of AACACUGCCAAUGCCGGUCCCAAGUCCGGAUAAAAGUGGAGGGGGCGG [C25U], the self-cleavage is reported as 0.881.
In the case of AACACUGCCAAUGCCGGUCCCAAGUCCGGGUAAAAGUGGAGGGGGCGG [C25U A30G], the self-cleavage is reported as 0.911.
In the case of AACACUGCCAAUGCCGGUCCCAAGUCCGGUUAAAAGUGGAGGGGGCGG [C25U A30U], the self-cleavage is reported as 0.932.
Work on AACACUGCCAAUGCCGGUCCCAAGUCCGGAUUAAAGUGGAGGGGGCGG [C25U A32U] yielded a self-cleavage of 0.799.
AACACUGCCAAUGCCGGUCCCAAGUCCGGAUAGAAGUGGAGGGGGCGG [C25U A33G] showed a self-cleavage of 0.853.
AACACUGCCAAUGCCGGUCCCAAGUCCGGAUAUAAGUGGAGGGGGCGG [C25U A33U] showed a self-cleavage of 0.822.
AACACUGCCAAUGCCGGUCCCAAGUCCGGAUAACAGUGGAGGGGGCGG [C25U A34C] showed a self-cleavage of 0.0649.
AACACUGCCAAUGCCGGUCCCAAGUCCGGAUAAGAGUGGAGGGGGCGG [C25U A34G] gave a self-cleavage of 0.487.
In the case of AACACUGCCAAUGCCGGUCCCAAGUCCGGAUAAACGUGGAGGGGGCGG [C25U A35C], the self-cleavage is reported as 0.779.
Variant AACACUGCCAAUGCCGGUCCCAAGUCCGGAUAAAAGUGGCGGGGGCGG [C25U A40C] has a self-cleavage of 0.109.
With AACACUGCCAAUGCCGGUCCCAAGUCCGGAUAAAAGUGGUGGGGGCGG [C25U A40U] the self-cleavage was 0.0985.
AACACUGCCAAUGCCGGUCCCAAGUACGGAUAAAAGUGGAGGGGGCGG [C25U C26A] showed a self-cleavage of 0.0893.
Work on AACACUGCCAAUGCCGGUCCCAAGUCCGGAUAAAAGUGGAGGGGGAGG [C25U C46A] yielded a self-cleavage of 0.686.
For AACACUGCCAAUGCCGGUCCCAAGUCCGGAUAAAAGUGGAGGGGGGGG [C25U C46G], the self-cleavage was 0.762.
Variant AACACUGCCAAUGCCGGUCCCAAGUCCGGAUAAAAGUGGAGGGGGUGG [C25U C46U] has a self-cleavage of 0.75.
AACACUGCCAAUGCCGGUCCCAAGUCCAGAUAAAAGUGGAGGGGGCGG [C25U G28A] gave a self-cleavage of 0.713.
AACACUGCCAAUGCCGGUCCCAAGUCCGAAUAAAAGUGGAGGGGGCGG [C25U G29A] gave a self-cleavage of 0.734.
For AACACUGCCAAUGCCGGUCCCAAGUCCGCAUAAAAGUGGAGGGGGCGG [C25U G29C], the self-cleavage was 0.635.
For AACACUGCCAAUGCCGGUCCCAAGUCCGUAUAAAAGUGGAGGGGGCGG [C25U G29U], the self-cleavage was 0.824.
AACACUGCCAAUGCCGGUCCCAAGUCCGGAUAAAACUGGAGGGGGCGG [C25U G36C] gave a self-cleavage of 0.15.
In the case of AACACUGCCAAUGCCGGUCCCAAGUCCGGAUAAAAUUGGAGGGGGCGG [C25U G36U], the self-cleavage is reported as 0.123.
With AACACUGCCAAUGCCGGUCCCAAGUCCGGAUAAAAGUCGAGGGGGCGG [C25U G38C] the self-cleavage was 0.847.
Work on AACACUGCCAAUGCCGGUCCCAAGUCCGGAUAAAAGUUGAGGGGGCGG [C25U G38U] yielded a self-cleavage of 0.614.
AACACUGCCAAUGCCGGUCCCAAGUCCGGAUAAAAGUGCAGGGGGCGG [C25U G39C] gave a self-cleavage of 0.117.
With AACACUGCCAAUGCCGGUCCCAAGUCCGGAUAAAAGUGUAGGGGGCGG [C25U G39U] the self-cleavage was 0.158.
In the case of AACACUGCCAAUGCCGGUCCCAAGUCCGGAUAAAAGUGGACGGGGCGG [C25U G41C], the self-cleavage is reported as 0.147.
With AACACUGCCAAUGCCGGUCCCAAGUCCGGAUAAAAGUGGAGGUGGCGG [C25U G43U] the self-cleavage was 0.182.
AACACUGCCAAUGCCGGUCCCAAGUCCGGAUAAAAGUGGAGGGCGCGG [C25U G44C] showed a self-cleavage of 0.692.
Variant AACACUGCCAAUGCCGGUCCCAAGUCCGGAUAAAAGUGGAGGGGCCGG [C25U G45C] has a self-cleavage of 0.247.
AACACUGCCAAUGCCGGUCCCAAGUCCGGAUAAAAGUGGAGGGGGCUG [C25U G47U] showed a self-cleavage of 0.573.
Work on AACACUGCCAAUGCCGGUCCCAAGUCCGGAUAAAAGUGGAGGGGGCGA [C25U G48A] yielded a self-cleavage of 0.559.
AACACUGCCAAUGCCGGUCCCAAGUCCGGAUAAAAGUGGAGGGGGCGC [C25U G48C] gave a self-cleavage of 0.881.
For AACACUGCCAAUGCCGGUCCCAAGUCCGGACAAAAGUGGAGGGGGCGG [C25U U31C], the self-cleavage was 0.61.
With AACACUGCCAAUGCCGGUCCCAAGUCCGGAUAAAAGAGGAGGGGGCGG [C25U U37A] the self-cleavage was 0.392.
AACACUGCCAAUGCCGGUCCCAAGUCCGGAUAAAAGCGGAGGGGGCGG [C25U U37C] showed a self-cleavage of 0.133.
